Results published in patent US20210277090A1.

Molecular target: trypsin
Assay: cell-based or functional assay

specific activity of the sample (units of trypsin inhibition): 5000 U/mg
Substance: recombinant ulinastatin polypeptide (T17); mature human ulinastatin with S10A mutation, N-linked glycan at N45 and O-linked glycan at T17 (from UniProt P02760 206-352)
